Data as given in the nanobody polyreactivity screen of Harvey et al. (2022).

Assay: yeast display, Sf9 membrane polyspecificity reagent, FACS + sequencing; frameworks hold sequencing errors
How it was run: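 Sorting gates, low and high (top ~1%), were placed on anti-HA fluorescence to track expression and on streptavidin fluorescence to track reagent binding. A clone's polyreactivity label is taken from the gate it came out of. The reagent was 10% biotinylated, detergent-solubilized Sf9 membrane, applied for 1 hour at 4 °C to galactose-induced yeast display cells.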

Sequence	polyreactivity (PSR sort gate)
QVQLVESGGGLVQAGGSLRLSCAASGRTFSSNAMGWYRQAPGKERELVAAITYTGTSTYYADSVKGRFTISRDYAKNTVYLQMNSLKPEDTAVYYCAALYVQGTHTYGYWGQGTQVTVSS	high polyreactivity
QVQLVESGGGLVQAGGSLRLSCAASGRTFSSNTMGWYRQAPGKERELVAAIDWSGGRTYYADSVKGRFTISRDNAKNTVYLQLNSLKPEDTEVYYCARSRSYWGIVYGRYDYWGQGTQVTVSS	high polyreactivity
QVQLVESGGGLVQAGGSLRLSCAASGRTFSTYAMGWYRQAPGKERELVAGISRGGGSTYYADSVKGRFTISRDNAKNTVYLQMNSLKPEDTAVYYCAAKRPQYYVQYGYWGQGTQVTVSS	high polyreactivity
QVQLVESGGGLVQAGGSLRLSCAASGRTFSVNAMGWSRQAPGKERELVAAITYSGGGTYYADSVKGRFTISRDNAKNPVYLQMNSLKPEDTAVYYCAAPVYTWYHRYDYWGQGTQVTVSS	high polyreactivity
QVQLVESGGGLVQAGGSLRLSCAASGRTFSVYAMGWYRQAPGKERELVAAINRGGSTNYADSVKGRFTISRDNAKNTVYLQMNSLKPEDTAVYYCAATYYWGRKAGFDYWGQGTQVTVSS	low polyreactivity
QVQLVESGGGLVQAGGSLRLSCAASGRTFSVYAMGWYRQAPGKERELVATISWGGGITYYADSVKGRFTISRDNAKNTVYLQMNSLKPEDTAVYYCAAKRSLYPYYYWGQGTQVTVSS	high polyreactivity
QVQLVESGGGLVQAGGSLRLSCAASGRTFSVYTMGWYRQAPGKERELVASINWSGGRTYYADSVKGRFTISRDNAKYSVYFQMISLKPEDTAVYYCAATGWRTLFDYWGQGTQVTVSS	high polyreactivity
QVQLVESGGGLVQAGGSLRLSCAASGRTFSVYTMGWYRQAPGKERELVASISRSGGRTYYADSVKGRFTISRDNAKNTVYLQMNSLKPADTAVYYCAARWYSASALKYYYWGQGTQVTVSS	high polyreactivity
QVQLVESGGGLVQAGGSLRLSCAASGRTFSWNTMGWYRQAPGKERELVAAITRVGTTYYADSVKGRFTISRDNAKNTVYLQMNSLKPEDTGVYYCNARKVRYPYRWYDYWGQGTQVTVSS	high polyreactivity
QVQLVESGGGLVQAGGSLRLSCAASGRTFSWYAMGWYRQAPGKEREFVATISASGGSTYYADSVKGRFTISRDNAKNTVYLQMNSLKPEDTAVYYCAADRSIRFFSPANYDYWGQGTQVTVSS	high polyreactivity
QVQLVESGGGLVQAGGSLRLSCAASGRTFSWYAMGWYRQAPGKERELVAAITWSGGSTYYADSVKGRFTISRDNAKNTVYLQMNSLKPEDTAVYYCNALRYSNRRYYSTGPHDYWGQGTQVTVSS	high polyreactivity
QVQLVESGGGLVQAGGSLRLSCAASGRTFSWYTMGWYRQAPGNERELVAVINYSGGSTYYADSVKGRFTISRDNAKNTVYLQMTSLKPEDTAVYYCAARNVVTGYRYDYWGQGTQVTVSS	high polyreactivity
QVQLVESGGGLVQAGGSLRLSCAASGRTFSYNAMGWYRQAPGKERELVAAISSGGSTYYADSVKGRFTISRDNAKNTVYLQMNSLKPEDTAVYYCAADSPSVWGYRYDYDYWGQGTQVTVSS	low polyreactivity
QVQLVESGGGLVQAGGSLRLSCAASGRTFSYNAMGWYRQAPGKERELVATISWGGGSTYYADSVKGRFTISRDNAKNTVYLQMNSQKPEDTAVFYCARVGWYAYLIDRDYWGQGSQVTVSS	high polyreactivity
QVQLVESGGGLVQAGGSLRLSCAASGRTFSYNAMGWYRQAPGKERELVAVISASGGSTYYADSVKGRFTISRDNAKNTVYLQMNSLKPEDTAVYYCAKRRSPVERYDYWGQGTQVTVSS	low polyreactivity
QVQLVESGGGLVQAGGSLRLSCAASGRTFSYYAMGWYRQAPGKERELVAAISWSGGSTYYADSVKGRFTISRDNAKNTVYLQMNSLKPEDTAVYYCNAPGYVWKGYDYWGQGTQVTVSS	high polyreactivity

Sequence	polyreactivity (PSR sort gate)
QVQLVESGGGLVQAGGSLRLSCAASGRTFSYYAMGWYRQAPGKERELVAAITDSGDSTYYADSVKGRFTISRDNAKNTVYLQMNSLKPEDTAVYYCAAEIYSYYRFYWYDYWGQGTQVTVSS	high polyreactivity
QVQLVESGGGLVQAGGSLRLSCAASGRTFSYYAMGWYRQAPGKERELVAAITSSGGRTYYADSVKGRFTISRDTAKKSFYFQMYSLKPEDSAVYFFNTYTGQRDFSPFDSWGQGTQVTVTS	high polyreactivity
QVQLVESGGGLVQAGGSLRLSCAASGRTFSYYAMGWYRQAPGKERELVAAITSSGTGTYYADSVKGRFTISRDNAKNTVYLQMNSLKPEDTAVYYCAVLTTSKSRVKLYYWGQGTQVTVSS	high polyreactivity
QVQLVESGGGLVQAGGSLRLSCAASGRTFSYYAMGWYRQAPGKERELVASIRKSGASTYYADSVKGRFTISRDNAKNTVYLQMNSLKPEDTAVYYCNTAGWSFYSGRYDYWGQGTQVTVSS	high polyreactivity
QVQLVESGGGLVQAGGSLRLSCAASGRTFSYYAMGWYRQAPGKERELVAYITSSGGSTYYADSVKGRFTISRDNAKNTVYLQMNSLKPEDTAVYYCATRGGSRARGMDYWGQGTQVTVSS	high polyreactivity
QVQLVESGGGLVQAGGSLRLSCAASGRTFSYYTMGWSRQAPGKERELVAAISWSGGNTYYADSVKGRFTISRDNAKNTVYLQMNSLKPEDTAVYYCAARSVYGSYSGYDYWGQGTQVTVSS	high polyreactivity
QVQLVESGGGLVQAGGSLRLSCAASGRTFSYYTMGWYRQAPGKERELVARISNRGTNTYYADSVKGRFTISRDNAKNTVYLQMNSLKPEDTAVYYCNAAFSVRHLYRYDYWGQGTQVTVSL	low polyreactivity
QVQLVESGGGLVQAGGSLRLSCAASGRTFTFNAMGWYRQAPGKERELVARIDWRGITYADSVKGRFTISRDNAKNTVYLQMNSLKPEDTAVYYCAAVWLHISYYGKYDYWGQGTQVTVSS	low polyreactivity
QVQLVESGGGLVQAGGSLRLSCAASGRTFTGNVMGWYRQAPGKERELVAAISRSGTSTYYADSVKGRFTISRDNAKNTVYLQMNSLKPEDTAVYYCAARRTAGYRSGEYDYWGQGTQVTVSS	high polyreactivity
QVQLVESGGGLVQAGGSLRLSCAASGRTFTGYAMGWYRQAPGKEREFVAAITQRGGSTYYADSVKGRFTISRDNAKNTVYLQMNSLKPEDTAVYYCAASYLTWKRRYDYWGQGTQVTVSS	high polyreactivity
QVQLVESGGGLVQAGGSLRLSCAASGRTFTIYARGWYRQAPGKERELVAAITSGGSTYYADSVKGRFTISRDNAKNTVYLQMNSLKPEDTAVYYCDRGYAVSLVSRYDYWGQGTQVTVSS	low polyreactivity
QVQLVESGGGLVQAGGSLRLSCAASGRTFTKNAMGWYRQAPGKERELVAAISISGGSTYYADSVKGRFTISRDNAKNTVYLQMYSLKPEDTAVYYCAADVVTYLSYTLDYWGQGTQVTVSS	low polyreactivity
QVQLVESGGGLVQAGGSLRLSCAASGRTFTKYAMGWYRQAPGKERELVAGITRRGGNTYYADSVKGRFTISRDNAKNTVYLQMNSLKPEDTAVYYCAKGYDFLRYDYWGQGTQVTVSS	high polyreactivity
QVQLVESGGGLVQAGGSLRLSCAASGRTFTLYAMGWYRQAPGKERELVAAIRWSGSSTYYADSVKGRFTISRDNAKNTVYLQMNSLKPEDTAVYYCAADRAYRRFSQGAYSPWILKYGYWGQGTQVTVSS	high polyreactivity
QVQLVESGGGLVQAGGSLRLSCAASGRTFTNNVMGWYRQAPGKERELVAAITSGGTNYADSVKGRFTISRDNAKNTVYLQMNSLKPEDTAVYYCATDYYDEVTIGYDYWGQGTQVTVSS	low polyreactivity
